Data published in paper PMC11746146 (Nature Structural & Molecular Biology, 2024).
Where a chain is given by its changes, count along the chain named. Names and notes keep the numbering of the source.

Legend:
[1] = target: human guanylate-binding protein 1 (GBP1), non-farnesylated (human) (UniProt P32455); assay: SEC-MALS; protein at 15 µM with the GTP transition-state mimic GDP·AlF3, incubated 5–10 min at room temperature; Superdex200 Increase 10/300 GL; 50 mM HEPES pH 7.4, 150 mM NaCl, 0.5 mM TCEP or DTT
[2] = target: T1, human guanylate-binding protein 1 (GBP1), non-farnesylated (human, UniProt P32455); assay: SEC-MALS; nanobody mixed with GBP1 or GBP1F, in the presence and absence of GDP·AlF3; SDS–PAGE (and western blot for GFP–Nb74) of peak fractions; conditions: both partners purified
T1 construct: human GBP1, UniProt P32455, codon-optimized synthetic DNA in pETM14; called full-length in the results; Dimer studied with GDP·AlF3 (200 µM GDP, 10 mM NaF, 300 µM AlCl3, 5 mM MgCl2); also called hGBP1; WT GBP1; source: E. coli BL21(DE3), purified (TALON, 3C cleavage, SEC); not shown: His6, N-terminal, cleaved

[3] = target: T2, farnesylated human GBP1 (GBP1F) (human, UniProt P32455, C-terminal C15-farnesyl moiety (CaaX isoprenylation motif)); assay: as above; conditions: both partners purified
T2 construct: human GBP1, UniProt P32455, from pETM14-GBP1, co-translationally farnesylated; also called GBP1F–GDP·AlF3; WT GBP1F; source: E. coli BL21(DE3), co-expressed with FNTA-FNTB, purified (TALON, 3C cleavage, HIC, SEC); not shown: His6, N-terminal, cleaved

[4] = target: the molecule itself; assay: mass photometry; Refeyn OneMP; samples with GDP·AlF3 diluted to 15 nM in 50 mM HEPES pH 7.5, 150 mM NaCl
[5] = target: the molecule itself; assay: SEC-MALS; protein at 15 µM with the GTP transition-state mimic GDP·AlF3, incubated 5–10 min at room temperature; Superdex200 Increase 10/300 GL; 50 mM HEPES pH 7.4, 150 mM NaCl, 0.5 mM TCEP or DTT

“human guanylate-binding protein 1 (GBP1), non-farnesylated (from UniProt P32455 1-592) (natural protein)” was tested, and the stoichiometry N [1] was 2.

B1: nanobody 74 (Nb74) (VHH)
VHH: QVQLVESGGGLVQAGDSLRLSCAASGRALGNYYVGWFSQAPGKEREFVAAISWSGSSTFYADSVKGRFTISRDNAKNTVDLQMNSLKPEDTAVYYCAANPTAKLGSSWYQTPREFGYWGQGTQVTVSS
notes: llama nanobody selected by phage display; the entry PDB 8CQB / EMD-16794 is headed GBP1–GDP·AlF3–Nb74, but the deposited model is called the GBP1 dimer (956 protein residues), so Nb74 may not be in it; Raised in llamas immunized with monomeric GBP1, GBP1F or GDP·AlF3-stabilized dimeric GBP1; source: E. coli WK6 (su−), periplasmic extract, purified (Ni-NTA)
B1 was tested, and the “stoichiometry N” value [2] was 1 molar ratio and the “stoichiometry N” value [3] was 1.

B2: GBP1 D308S, non-farnesylated (natural protein, human, UniProt P32455 1-592, looked up)
chain: MASEIHMTGPMCLIENTNGRLMANPEALKILSAITQPMVVVAIVGLYRTGKSYLMNKLAGKKKGFSLGSTVQSHTKGIWMWCVPHPKKPGHILVLLDTEGLGDVEKGDNQNDSWIFALAVLLSSTFVYNSIGTINQQAMDQLYYVTELTHRIRSKSSPDENENEVEDSADFVSFFPDFVWTLRDFSLDLEADGQPLTPDEYLTYSLKLKKGTSQKDETFNLPRLCIRKFFPKKKCFVFDRPVHRRKLAQLEKLQDEELDPEFVQQVADFCSYIFSNSKTKTLSGGIQVNGPRLESLVLTYVNAISSGSLPCMENAVLALAQIENSAAVQKAIAHYEQQMGQKVQLPTETLQELLDLHRDSEREAIEVFIRSSFKDVDHLFQKELAAQLEKKRDDFCKQNQEASSDRCSALLQVIFSPLEEEVKAGIYSKPGGYRLFVQKLQDLKKKYYEEPRKGIQAEEILQTYLKSKESMTDAILQTDQTLTEKEKEIEVERVKAESAQASAKMLQEMQRKNEQMMEQKERSYQEHLKQLTEKMENDRVQLLKEQERTLALKLQEQEQLLKEGFQKESRIMKNEIQDLQTKMRRRKACTIS
notes: human GBP1, UniProt P32455, variant made from pETM14-GBP1 by QuikChange mutagenesis; source: E. coli BL21(DE3), purified (TALON, 3C cleavage, SEC); not shown: His6, N-terminal, cleaved
B2: binds [4].

B3: GBP1 Y143A, non-farnesylated (natural protein, human, UniProt P32455 1-592, looked up)
chain: B2 chain with Y143A, S308D
notes: as for B2
B3: binds [4].

B4: GBP1 K466D, non-farnesylated (natural protein, human, UniProt P32455 1-592, looked up)
chain: B2 chain with S308D, K466D
notes: as for B2
B4: binds [4].

B5: GBP1F R584–586A (natural protein, human, UniProt P32455 1-592, looked up)
chain: B2 chain with S308D, R584A, R585A, R586A
modifications: C-terminal C15-farnesyl moiety (CaaX isoprenylation motif)
notes: human GBP1, UniProt P32455, polybasic motif R584–R586 changed to alanines, farnesylated; also called GBP1F R584-R586; source: E. coli BL21(DE3), purified; not shown: His6, N-terminal, cleaved
B5: binds [5].
